For 2 substances, percent of parent results are on record in article PMC8257933.

The target in assay [1] is NTCP-V5-His G60LXXXA64L/G233LXXXG237L (TMD2/7) double mutant. Description: co-IP (IP anti-FLAG agarose, western blot anti-V5, ImageJ band quantification). As to conditions: HEK293 cells co-transfected with NTCP-FLAG and NTCP-V5-His; n = 3 independent experiments; parent: est. 100; read off a plot.
Assay [2] addresses NTCP-V5-His G233LXXXG237L (TMD7) mutant. The assay is described as above. As to conditions: HEK293 cells co-transfected with NTCP-FLAG and NTCP-V5-His; n = 3 independent experiments; parent: est. 100; read off a plot.

Take “NTCP wild type, NTCP-FLAG and NTCP-V5-His expressed in HEK293 cells (from UniProt Q14973) binder (NTCP-FLAG): G60L; A64L; G233L; G237L; target (NTCP-V5): G60L; A64L; G233L; G237L”: the percent of parent in assay [1] is 130 % of control.
“NTCP wild type, NTCP-FLAG and NTCP-V5-His expressed in HEK293 cells (from UniProt Q14973) binder (NTCP-FLAG): G60L; A64L; target (NTCP-V5): G233L; G237L”: the percent of parent in assay [2] is 120 % of control.
